Holding throughout (assay): xCELLigence real-time killing assay (impedance)
Format in all cases: cell-based, human

The subject of test [1] is T47D wild-type breast cancer cells. To be noted: for concentration showing potent / effective / comparable killing: after 120 hours; for ADC concentration at which essentially all the tumor cells were killed: readout 120 hours post ADC addition, DAR: MNC2-MMAE 4.1, MN20A10-MMAE 5.8, MNC2-MMAF 3.7, MN20A10-MMAF 3.8; for concentration at which target cells are effectively killed: within a 40 hour timeframe. On the procedure:
FIGS. 49A-49J show traces from the real-time killing assays performed on an xCELLigence instrument. In this assay, impedance is measured in real-time. When the adherent cancer cells are killed and come off of the electrode surface, impedance (insulation) decreases. T47D wild-type breast cancer cells were plated onto multi-electrode-well plates at 5,000 cells per well and allowed to adhere and grow for 24 hours before the addition of ADCs. Either MNC2-MMAE, DAR 4.1, MN20A10-MMAE, DAR 5.8, MNC2-MMAF, DAR 3.7, MN20A10-MMAF, DAR 3.8, MNC2-Deruxtecan, DAR 7.2, or MN20A10-Deruxtecan, DAR 4.6, was then added to the cancer cells. […] Taxol and Triton are added as the positive killing control. […] Taxol and Triton are added as the positive killing control. […]
(§1) To assess real-time killing of target cancer cells including breast cancer cells (T47D), non-small cell lung cancer cells (NCI-H1975) and pancreatic cancer cells (HP AF II) assays were performed on an xCELLigence RTCA MP Instrument (Agilent). Target Cancer cells were seeded onto a multi-electrode well plate at a density of 5000 cells/well (100 μL of a 50,000 cells/mL stock) and incubated for 24 hr in a 37° C./5% CO2 incubator. mAb MNC2 ADCs or mAb MN20A10-ADCs were prepared as a 2× solution in corresponding growth media and 100 μL of each concentration was added to target cells. As a positive control (100% cell killing) cells were treated with either 1% triton or 1 μM Taxol instead of ADC. After 40-120 hours incubation in a 37° C./5% CO2 incubator cell killing was assessed. In this assay, impedance is measured in real-time. When the adherent cancer cells are killed and come off the electrode surface, impedance (insulation) decreases.
(§2) MNC2-ADCs and MN20A10-ADCs were also assayed for their ability to kill both low and high MUC1* expressing cells by monitoring killing in real-time using an xCELLigence instrument. In the xCelligence system, target cancer cells, which are adherent, are plated onto electrode array 96-well plates. Adherent cells insulate the electrode and increase the impedance. The number of adherent cancer cells is directly proportional to impedance. […] Therefore, increasing impedance reflects the growth of the cancer cells and decreasing impedance reflects the killing of the cancer cells.
Breast cancer cell line T47D-wt expresses MUC1* at low to low-medium levels. Pancreatic cancer cell line HPAF II-wt expresses even lower levels of MUC1* and lung cancer cell line NCI-H1975 express still lower levels of MUC1*.

Test [2] concerns NCI-H1975 lung cancer cells. The note with it: for time course of effect: 40 hours versus 120 hours; for ADC concentration at which essentially all the lung tumor cells were killed: readout 40 hours; for ADC concentration at which essentially all the tumor cells were killed: readout 120 hours post ADC addition. On the procedure:
FIG. 51A-51I show traces from the real-time killing assays performed on an xCELLigence instrument. In this assay, impedance is measured in real-time. When the adherent cancer cells are killed and come off of the electrode surface, impedance (insulation) decreases. NCI-H1975 lung cancer cells were plated onto multi-electrode-well plates at 5,000 cells per well and allowed to adhere and grow for 24 hours before the addition of ADCs. Either MNC2-MMAE, DAR 4.1, MN20A10-MMAE, DAR 5.8, MNC2-MMAF, DAR 3.7, MN20A10-MMAF, DAR 3.8, MNC2-Deruxtecan, DAR 7.2, or MN20A10-Deruxtecan, DAR 4.6, was then added to the cancer cells. […] Taxol and Triton are added as the positive killing control. […].
FIGS. 56A-56D show traces from the real-time killing assays performed on an xCELLigence instrument. In this assay, impedance is measured in real-time. When the adherent cancer cells are killed and come off of the electrode surface, impedance (insulation) decreases. Here NCI-H1975 non-small cell lung cancer cells that express very low levels of MUC1*, were plated onto multi-electrode 96-well plates at 5,000 cells per well and allowed to adhere and grow for 24 hours before the addition of ADCs. Either MNC2-Exatecan, DAR 8.2, MNC2-Deruxtecan, DAR 4.0, MNC2-MMAE, DAR 4.1, or free Exatecan at 50 μM, was then added to the cancer cells.
as §1, §2

Test [3] deals with HPAF II-MUC1* pancreatic cancer cells. The note with it: readout 120 hours post ADC addition. The protocol: FIGS. 53A-53I show traces from the real-time killing assays performed on an xCELLigence instrument. In this assay, impedance is measured in real-time. When the adherent cancer cells are killed and come off of the electrode surface, impedance (insulation) decreases. HPAF II-MUC1* pancreatic cancer cells, engineered to express more MUC1*, were plated onto multi-electrode-well plates at 5,000 cells per well and allowed to adhere and grow for 24 hours before the addition of ADCs. Either MNC2-MMAE, DAR 4.1, MN20A10-MMAE, DAR 5.8, MNC2-MMAF, DAR 3.7, MN20A10-MMAF, DAR 3.8, MNC2-Deruxtecan, DAR 7.2, or MN20A10-Deruxtecan, DAR 4.6, was then added to the cancer cells. […] Taxol and Triton are added as the positive killing control. […] Taxol and Triton are added as the positive killing control. […] As indicated, essentially all the pancreatic tumor cells were killed at an MNC2-MMAE concentration of 56 nM. […] As indicated, essentially all the tumor cells were killed at an MNC2-MMAF concentration of 56 nM. […] As indicated, essentially all the tumor cells were killed at an MN20A10-MMAE concentration of 56 nM-19 nM. […] As indicated, essentially all the tumor cells were killed at an MN20A10-MMAF concentration of 56 nM.
as §1, with “When the adherent cancer cells are killed and come off the electrode surface, impedance (insulation) decreases.” left out

Three molecules from patent US12491259B2, “Anti-variable MUC1* antibodies and uses thereof” (Minerva Biotechnologies Corporation, priority 2022, dated 2025) can be followed below.

B1: MN20A10-MMAF (conjugate)
VH: QVQLVESGGGLVKPGGSLRLSCAASGFTFSTYAMSWIRQAPGKGLEWVASIGRAGSTYYSDSVKGRFTISRDNAKNSLYLQMNSLRAEDTAVYYCARGPIYNDYDEFAYWGQGTLVTVSS
VL: EIVLTQSPATLSLSPGERATLSCKSSQSVLYSSNQKNYLAWYQQKPGQAPRLLIYWASTRESGIPARFSGSGSGTDFTLTISSLEPEDFAVYYCHQYLSSLTFGGGTKVEIKR
Take B1: in test [1], the “concentration showing potent / effective / comparable killing” value is on record as 167 nM, the “ADC concentration at which essentially all the tumor cells were killed” value was determined as 167 nM and the “concentration at which target cells are effectively killed” value was 500 nM. Besides, in test [2], the “time course of effect” value is on record as “stasis at 40 hours, but killing at 120 hours”; the “ADC concentration at which essentially all the lung tumor cells were killed” value came to 167 nM; the “ADC concentration at which essentially all the tumor cells were killed” value is on record as 56 nM. In addition, in test [3], the “ADC concentration at which essentially all (nearly all, near total) tumor cells were killed” value came to 56 nM.

B2: MNC2-MMAF (conjugate)
VH: EVQLVESGGGLVKPGGSLRLSCAASGFTFSGYAMSWVRQAPGKGLEWVSTISSGGTYIYYPDSVKGRFTISRDNAKNSLYLQMNSLRAEDTAVYYCARLGGDNYYEYFDVWGKGTTVTVSS
VL: DIVLTQSPASLAVSPGQRATITCRASKSVSTSGYSYMHWYQQKPGQPPKLLIYLASNLESGVPARFSGSGSGTDFTLTINPVEANDTANYYCQHSRELPFTFGGGTKVEIKRT
For the molecule B2, in test [1], the “concentration showing potent / effective / comparable killing” value is recorded as 167 nM, the “ADC concentration at which essentially all the tumor cells were killed” value came to 167 nM and the “concentration at which target cells are effectively killed” value was 500 nM. Moreover, in test [2], the “time course of effect” value is listed as “stasis at 40 hours, but killing at 120 hours”; the “ADC concentration at which essentially all the lung tumor cells were killed” value is given as 167 nM; the “ADC concentration at which essentially all the tumor cells were killed” value worked out at 56 nM. Moreover, the “ADC concentration at which essentially all (nearly all, near total) tumor cells were killed” value in test [3] is listed as 56 nM.

B3: MNC2-Deruxtecan (conjugate)
VH: B2 VH
VL: B2 VL
With B3, the “concentration showing potent / effective / comparable killing” value in test [1] turned out to be 167 nM. Also, in test [1] (by 100 hours, DAR 7.2), the “concentration reaching approximately the same level of killing as MNC2-MMAE or -MMAF” value stood at 167 nM. In addition, in test [2], the “time course of effect” value is “stasis at 40 hours, but killing at 120 hours”. Also, the “ADC concentration at which essentially all (nearly all, near total) tumor cells were killed” value in test [3] is reported as 167 nM.
